Data on one molecule can be found in paper PMC4169570, “Acyl-Homoserine Lactone Recognition and Response Hindering the Quorum-Sensing Regulator EsaR”.

What all share (settings): protein: recombinant; tags: N-terminal His6-MBP-TEV-Gly5; chain copies: 2; label: 5' TAMRA on strand 1; blunt
The target of series [1] is T1, HMGE A32V (Pantoea stewartii subsp. stewartii, UniProt P54293 1-249, A32V).
T1 sequence: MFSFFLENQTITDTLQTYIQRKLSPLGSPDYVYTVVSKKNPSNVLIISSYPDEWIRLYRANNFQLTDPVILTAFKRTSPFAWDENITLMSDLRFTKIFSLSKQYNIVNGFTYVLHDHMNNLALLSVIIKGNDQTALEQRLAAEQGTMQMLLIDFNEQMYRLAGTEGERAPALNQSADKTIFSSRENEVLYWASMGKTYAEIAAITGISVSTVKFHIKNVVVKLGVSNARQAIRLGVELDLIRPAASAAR
Description: fluorescence anisotropy; no AHL; 150 mM NaCl, 6 mM HEPES, 17.5 mM Tris, 3% glycerol, pH 7.6, 25 C, 20 min; 3 nM T-esabox, 0-100 nM protein.

Series [2] concerns the target T2, HMGE D83E (Pantoea stewartii subsp. stewartii, UniProt P54293 1-249, D83E).
T2 sequence: T1 sequence with V32A, D83E
Described as above.

In series [3] the target is T3, HMGE F94Y (Pantoea stewartii subsp. stewartii, UniProt P54293 1-249, F94Y).
T3 sequence: T1 sequence with V32A, F94Y
The series is described as above.

Series [4] has as its target T4, HMGE (His6-MBP-TEV-Gly5-EsaR wild type) (Pantoea stewartii subsp. stewartii, UniProt P54293 1-249).
T4 sequence: T1 sequence with V32A
Described as above.

The target of series [5] is T1, HMGE A32V. Description: fluorescence anisotropy; 1 uM AHL; 150 mM NaCl, 6 mM HEPES, 17.5 mM Tris, 3% glycerol, pH 7.6, 25 C, 20 min; 3 nM T-esabox, 0-100 nM protein. A general note: In fluorescence polarisation assays a small probe gives low polarisation when free and higher when bound to something large.
For series [6], the target named is T2, HMGE D83E. The description is as above.
Series [7] concerns the target T3, HMGE F94Y. The description is as above.
Series [8] concerns the target T4, HMGE (His6-MBP-TEV-Gly5-EsaR wild type). The description is as above.

Substitutions are numbered along the chain they refer to.

B1: T-esabox (PesaR28 TAMRA/PesaR28R) (dsDNA)
DNA 1: TCTTGCCTGTACTATAGTGCAGGTTAAG
DNA 2: CTTAACCTGCACTATAGTACAGGCAAGA
Broadly, the Kd is the free concentration of one partner at which half of the binding sites on the other are occupied at equilibrium, for simple one-to-one binding. As for B1, the Kd with HMGE A32V [1] turned out to be 2.18 ± 0.73 nM; with HMGE D83E [2] it was 4.01 ± 1.13 nM; with HMGE F94Y [3] it was 3.26 ± 0.93 nM; in series [4], 3.11 ± 0.33 nM; with HMGE A32V [5], 2.33 ± 1.06 nM; with HMGE D83E [6], 2.91 ± 0.58 nM. The figures for the equilibrium dissociation constant (Kd) (with HMGE F94Y [7]; in series [8]) were 2.65 ± 1.03 nM and 6.19 ± 1.31 nM, respectively.
